Measured values taken from patent US12466859B2, “Desmoglein 2 (DSG2) binding proteins and uses therefor” (UNIVERSITY OF WASHINGTON THROUGH ITS CENTER FOR …, priority 2013, dated 2025).

T1: soluble recombinant DSG2 (Homo sapiens, UniProt Q14126)
T1 construct: Western blot using soluble recombinant DSG2 as a probe; purchased Leinco Technologies, Inc. (St. Louis, MO)
T1 sequence (Q14126 50-609 limits assumed): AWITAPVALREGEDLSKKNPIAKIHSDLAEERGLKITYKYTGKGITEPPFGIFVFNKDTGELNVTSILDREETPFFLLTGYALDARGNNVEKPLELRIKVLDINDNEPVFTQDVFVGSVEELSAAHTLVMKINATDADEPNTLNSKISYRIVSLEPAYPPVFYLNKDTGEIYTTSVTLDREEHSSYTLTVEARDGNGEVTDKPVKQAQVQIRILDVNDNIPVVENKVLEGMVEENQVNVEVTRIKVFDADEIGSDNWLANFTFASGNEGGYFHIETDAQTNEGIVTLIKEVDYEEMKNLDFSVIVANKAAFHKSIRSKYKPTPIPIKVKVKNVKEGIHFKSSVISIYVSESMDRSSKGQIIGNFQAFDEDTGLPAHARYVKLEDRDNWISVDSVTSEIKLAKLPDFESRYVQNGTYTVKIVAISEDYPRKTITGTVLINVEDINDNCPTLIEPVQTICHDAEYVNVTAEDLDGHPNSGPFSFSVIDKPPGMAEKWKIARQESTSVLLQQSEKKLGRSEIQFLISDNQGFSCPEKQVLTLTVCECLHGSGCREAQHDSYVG

T2: DSG2 (Homo sapiens, UniProt Q14126)
T2 construct: Western blot using soluble recombinant DSG2 as a probe; purchased Leinco Technologies, Inc. (St. Louis, MO)
T2 sequence (Q14126 50-609 limits assumed): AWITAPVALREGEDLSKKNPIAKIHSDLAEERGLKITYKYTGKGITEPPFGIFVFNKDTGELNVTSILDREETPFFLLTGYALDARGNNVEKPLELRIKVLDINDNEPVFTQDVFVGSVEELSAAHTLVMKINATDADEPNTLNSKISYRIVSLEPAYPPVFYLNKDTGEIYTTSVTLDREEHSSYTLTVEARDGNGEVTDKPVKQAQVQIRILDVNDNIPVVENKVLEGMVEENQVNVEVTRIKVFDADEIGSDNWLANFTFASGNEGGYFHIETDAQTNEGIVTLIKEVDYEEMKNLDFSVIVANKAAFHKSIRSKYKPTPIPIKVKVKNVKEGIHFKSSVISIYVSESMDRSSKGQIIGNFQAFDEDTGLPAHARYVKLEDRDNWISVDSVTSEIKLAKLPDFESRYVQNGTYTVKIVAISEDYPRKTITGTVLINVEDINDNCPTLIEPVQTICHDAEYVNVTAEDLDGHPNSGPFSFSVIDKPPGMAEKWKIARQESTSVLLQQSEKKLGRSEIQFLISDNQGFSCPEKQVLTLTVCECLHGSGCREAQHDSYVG


Experiments:
[1] = molecular target: T1, soluble recombinant DSG2; test: Western blot of dimeric Ad3 fiber knob mutants with soluble recombinant DSG2 as probe; assay type: binding; conditions: dimerized knob mutants compared to JO-1
From the text: FIG. 1A-1F. Residues found to be critically involved in binding to DSG2. FIG. 1A) Shown are the amino acid sequences of the Ad3 and Ad14p1 fiber knob. Beta sheets present in the Ad3 knob (PDB accession number 1H7Z_A) and Ad14 knob (PDB: 3F0Y_A) are indicated by lines. Black arrows indicate residues within the Ad3 fiber knob which, when mutated individually, ablate or reduce binding to DSG2. […] FIG. 1B) Schematic structure of dimeric Ad3 fiber knob mutants. The fiber knob domain and one shaft motif was fused through a flexible linker to a homodimerizing K-coil domain (41). The proteins are self-dimerizing and can be purified by His-Ni-NTA affinity chromatography. FIG. 1C-FIG. 1F) Analysis of binding of dimeric Ad3 fiber knob mutants to soluble DSG2. FIG. 1C and FIG. 1D) Coomassie staining. 10 μg of purified Ad3 fiber knob (unboiled) were loaded per lane. Trimeric forms of the fiber knobs are indicated by an arrow. The gel contained SDS and the loading buffer containing DTT, which caused the disassembly of dimers of trimeric fiber knobs as previously reported (41). FIG. 1E and FIG. 1F): Western blot using soluble recombinant DSG2 as a probe, followed by anti-DSG2-mAb and anti-mouse IgG-HRP. For comparison, JO-1 (0.5 μg/lane) is shown. The Western blots were scanned and signals were quantified.
Western Blot: Mini-PROTEAN precast gels (BIO-RAD, Hercules, CA) with 4-15% gradient polyacrylamide were used. A total of 1 μg protein mixed with 2× loading buffer (10 mM Tris-HCl, pH6.8, 200 mM DTT, 4% SDS, 20% glycerol, 0.2% bromophenol blue) was loaded per lane. Samples were either boiled (B) for 5 min or loaded unboiled (UB). The following running buffer was used: 25 mM Tris, pH8.3, 0.192 M glycine, 0.1% SDS. After electrophoresis, proteins were transferred to nitrocellulose and incubated with recombinant human DSG2 protein and anti-DSG2 antibodies as described previously (42). The Western blots were scanned and quantified using the ImageJ 1.32 software (National Institutes of Health, Bethesda, MD). JO-1 band intensity was set as 100%. […]

[2] = molecular target: T2, DSG2; test: Surface plasmon resonance of Ad3 fiber knobs on immobilized DSG2; assay type: binding; conditions: affinity to DSG2
Procedure: FIG. 7A-7B. SPR analysis of non-dimerized Ad3 fiber knob interactions with DSG2. FIG. 7A) DSG2 was immobilized on sensorchips, and background was automatically subtracted from the control flow cell. The Ad3 fiber knobs (w/o dimerization domain: “noDD”) were injected for 3 minutes at 2.5 μg/ml followed by a 2.5 minutes dissociation period. FIG. 7B) Summary of SPR data. […] The extracted data are resumed in the table. Wt=Ad3 fiber knob without mutations FIG. 8A-8G. Electron microscopy and 3D structure of Ad3 fiber knob mutant JO-2.
Surface Plasmon Resonance: Acquisitions were done on a BIAcore 3000 instrument. HBS-N (GE-Healthcare, Pittsburgh, PA) supplemented with 2 mM CaCl2) was used as running buffer in all experiments at a flow rate of 5 [l/min. Immobilization on CM4 sensorchip (BIAcore) was performed using DSG2 at 10 μg/ml diluted in 10 mM Acetate buffer pH 4.5 injected for 10 minutes on ethyl(dimethylaminopropyl) carbodiimide (EDC)/N-Hydroxysuccinimide (NHS) activated flow-cell. A control flow-cell was activated by (EDC/NHS) and inactivated by ethanolamine. Different concentrations of Ad3 fiber knob proteins were injected for 3 minutes association followed by 2.5 minutes dissociation time, and the signal was automatically subtracted from the background of the ethanolamine deactivated EDC-NHS flow cell. Kinetic and affinity constants were calculated using the BIAeval software.

Molecule	DSG2 binding in Western blot, in words [1]	Kd [2]
D261N (protein) MKVSALKEKVSALKEKVSALKEKVSALKEKVSALKEGSGGGSGGGSGGGSNSIALKNNTLWTGPKPEANCIIEYGKQNPDSKLTLILVKNGGIVNGYVTLMGASDYVNTLFKNKNVSINVELYFDATGHILPDSSSLKTDLELKYKQTADFSARGFMPSTTAYPFVLPNAGTHNENYIFGQCYYKASNGALFPLEVTVMLNKRLPDSRTSYVMTFLWSLNAGLAPETTQATLITSPFTFSYIREDD	almost completely ablated	–
JO-4 (protein) MKVSALKEKVSALKEKVSALKEKVSALKEKVSALKEGSGGGSGGGSGGGSNSIALKNNTLWTGPKPEANCIIEYGKQNPDSKLTLILVKNGGIVNGYVTLMGASDYVNTLFKNKNVSINVELYFDATGHILPDSSSLKTDLELKYKQTADFSARGFMPSTTAYPFVLPNAGTHNENFIFGQCYYKASDGALFPLEVTVMLNKRLPDSRTSYVMTFLWSLNAGLAPETTQATLITSPFTFSYIREDD	–	11.4 nM
